Laboratory results published in the Human Domainome abundance scans (Beltran et al. 2025).
± gives the uncertainty stated by the source.

B1: POU domain, class 3, transcription factor 2, residues 356 to 411; numbered along this chain, P20265 (parent)
chain: KKRTSIEVSVKGALESHFLKCPKPSAQEITSLADSLQLEKEVVRVWFCNRRQKEKR

Variants of: B1
Experiment: abundance fitness (aPCA) (normalised: wild type 0, dead -1); higher = more abundant; growth selection in yeast, the domain comes from the species named
Conditions: Homo sapiens

Abundance fitness: each site, then its substitutions
V45: I 0.01 ± 0.12; H 0.089 ± 0.12; F -0.175 ± 0.094; R -0.293 ± 0.09; T 0.001 ± 0.088; G -0.048 ± 0.092; L -0.033 ± 0.084; K -0.057 ± 0.1
E39: P -0.244 ± 0.13; K -0.121 ± 0.13; S -0.039 ± 0.076; C -0.133 ± 0.093; I -0.982 ± 0.37
P22: Q 0.137 ± 0.13; S -0.253 ± 0.1; W -0.699 ± 0.13; H -0.189 ± 0.17; D -0.122 ± 0.12; N -0.337 ± 0.15
Q52: G -0.076 ± 0.068; S -0.135 ± 0.085; A 0.039 ± 0.1; F -0.106 ± 0.11; T 0.039 ± 0.12; M -0.053 ± 0.12; K -0.001 ± 0.14
R3: S 0.023 ± 0.1; L 0.01 ± 0.087; H 0.002 ± 0.11; K 0.054 ± 0.21; W -0.273 ± 0.15; M 0.031 ± 0.11; I 0.045 ± 0.15; P -0.134 ± 0.15
V43: S -0.985 ± 0.14; I -0.197 ± 0.12; D -0.958 ± 0.19; R -0.95 ± 0.11; C -0.547 ± 0.15
C48: F 0.078 ± 0.12; Y 0.096 ± 0.12; K 0.101 ± 0.16; I -0.004 ± 0.18; N -0.165 ± 0.19; D -0.053 ± 0.14; H -0.118 ± 0.19
K55: G -0.029 ± 0.1; R -0.211 ± 0.11; D 0.036 ± 0.16; F -0.167 ± 0.14; N -0.046 ± 0.15; M -0.056 ± 0.14; Q -0.244 ± 0.2; P -0.396 ± 0.16
Q37: S -0.032 ± 0.073; C 0.087 ± 0.14; R -0.138 ± 0.074; N -0.077 ± 0.18; A -0.054 ± 0.071; V -0.394 ± 0.073
K11: V 0.026 ± 0.084; N -0.143 ± 0.15; Y -0.239 ± 0.25; T -0.027 ± 0.11; G -0.134 ± 0.091; M -0.041 ± 0.12; D 0.099 ± 0.13; W -0.039 ± 0.13
T30: H -0.205 ± 0.15; K 0.008 ± 0.14; C -0.131 ± 0.098
K20: L -0.322 ± 0.082; F -0.175 ± 0.15; D -0.46 ± 0.2; E -0.445 ± 0.12; M -0.336 ± 0.12
A26: P -0.224 ± 0.13; C -0.244 ± 0.13; N -0.097 ± 0.17; Y -0.235 ± 0.18; V -0.049 ± 0.068; T -0.033 ± 0.12; I -0.05 ± 0.14; M 0.03 ± 0.13; S -0.134 ± 0.078; R -0.13 ± 0.076
R44: E 0.027 ± 0.12; W -0.412 ± 0.14; D 0.008 ± 0.11; S -0.09 ± 0.07; H -0.127 ± 0.11; L -0.407 ± 0.068; T -0.08 ± 0.11; A -0.027 ± 0.083; N -0.152 ± 0.11
V8: Q 0.069 ± 0.13; M 0.046 ± 0.11
I29: F -0.786 ± 0.2; S -0.884 ± 0.11; A -1.03 ± 0.23
F18: E -0.979 ± 0.21; L -0.836 ± 0.1; D -0.875 ± 0.17; N -0.856 ± 0.36; W -0.335 ± 0.1; V -1.03 ± 0.12; C -0.914 ± 0.21; R -0.872 ± 0.1
A33: G -0.806 ± 0.12; T -0.83 ± 0.17; S -0.236 ± 0.087; H -0.789 ± 0.25; M -0.759 ± 0.26; R -0.936 ± 0.1
I6: D -0.072 ± 0.13; E -0.091 ± 0.15; F -0.438 ± 0.17; T -0.111 ± 0.16; Y -0.239 ± 0.16
E28: M -0.437 ± 0.17; T -0.088 ± 0.12; N -0.551 ± 0.22; F -0.511 ± 0.12; P -0.802 ± 0.18; A -0.257 ± 0.088; Q -0.402 ± 0.13
S16: D -0.193 ± 0.15; T -0.034 ± 0.11; N -0.297 ± 0.15; C -0.226 ± 0.12
L32: G -0.834 ± 0.11; D -1.03 ± 0.25; M -0.08 ± 0.15; K -0.927 ± 0.33; H -0.857 ± 0.19
L38: Y -0.827 ± 0.17; W -0.804 ± 0.1; I -0.191 ± 0.14; K -0.927 ± 0.17; A -0.713 ± 0.11; D -0.983 ± 0.19
L19: D -0.142 ± 0.17; G -0.245 ± 0.076; R 0.006 ± 0.068; F -0.474 ± 0.13; P -0.911 ± 0.17; K -0.162 ± 0.14
S5: V 0.229 ± 0.096; A -0.001 ± 0.12; T 0.173 ± 0.1; P 0.007 ± 0.11; M -0.018 ± 0.12
V42: Q -0.136 ± 0.16; C -0.01 ± 0.2; P -0.869 ± 0.23; I -0.204 ± 0.11; G -0.453 ± 0.08
E41: G -0.408 ± 0.085; Q -0.26 ± 0.14; P -0.697 ± 0.14; D -0.114 ± 0.14; H -0.168 ± 0.19
K40: R 0.017 ± 0.066; F -0.004 ± 0.13; A -0.017 ± 0.097; S -0.036 ± 0.085; V 0.007 ± 0.11; Q 0.078 ± 0.12; P -0.027 ± 0.12; G -0.085 ± 0.078; N 0.021 ± 0.19
A13: P -0.442 ± 0.19; N -0.211 ± 0.16; C -0.044 ± 0.11; D -0.356 ± 0.12; G -0.379 ± 0.088; M 0.024 ± 0.14; Y -0.142 ± 0.12; L -0.074 ± 0.084; W -0.422 ± 0.11; I -0.184 ± 0.15; E -0.067 ± 0.1
T4: C -0.287 ± 0.15; I 0.053 ± 0.15; P -0.101 ± 0.12; R -0.356 ± 0.074; L -0.199 ± 0.085
K2: I -0.207 ± 0.21; P -0.525 ± 0.24; G -0.087 ± 0.1; Y -0.06 ± 0.28; S -0.18 ± 0.12; D 0.028 ± 0.18; W -0.246 ± 0.13; H -0.335 ± 0.47
K23: G -0.426 ± 0.095; P -0.863 ± 0.17; V -0.045 ± 0.092; I -0.117 ± 0.16; F -0.163 ± 0.12; M -0.077 ± 0.11; Y -0.312 ± 0.16; T 0.086 ± 0.1
K1: G -0.214 ± 0.13; S -0.273 ± 0.15; D 0.082 ± 0.15; L -0.498 ± 0.46
L14: I -0.706 ± 0.27; G -0.882 ± 0.12; W -0.915 ± 0.14
D34: H 0.212 ± 0.15; F 0.031 ± 0.16; G -0.1 ± 0.08; T 0.055 ± 0.099; Q 0.105 ± 0.11; Y 0.184 ± 0.2; N 0.148 ± 0.12
S9: Q 0.1 ± 0.21; T 0.09 ± 0.091; G 0.046 ± 0.074; L -0.153 ± 0.11; K 0.109 ± 0.12; R 0.108 ± 0.1; N -0.198 ± 0.12; W 0.004 ± 0.11; H 0.057 ± 0.24
Q27: A -0.126 ± 0.085; P -0.21 ± 0.16
S25: L -0.423 ± 0.093; A -0.322 ± 0.1; G -0.194 ± 0.087; K -0.318 ± 0.14; R -0.47 ± 0.1; V -0.725 ± 0.094; I -0.793 ± 0.23
P24: E -0.846 ± 0.21; G -0.691 ± 0.11; A -0.789 ± 0.16; C -0.731 ± 0.19; T -0.986 ± 0.31; I -0.919 ± 0.38
C21: Q -0.01 ± 0.15; F -0.351 ± 0.11; P -1.14 ± 0.33; G -0.521 ± 0.081; I -0.484 ± 0.17
E15: W -0.822 ± 0.15; R -1.02 ± 0.14; S -0.959 ± 0.14; H -0.805 ± 0.36; N -0.693 ± 0.18; G -0.885 ± 0.11
N49: R -0.135 ± 0.065; G -0.25 ± 0.09; L -0.149 ± 0.08; T -0.207 ± 0.097; E 0.066 ± 0.12; W -0.18 ± 0.083; Y -0.396 ± 0.13; K -0.056 ± 0.12
G12: V 0.22 ± 0.086; L 0.117 ± 0.084; R -0.045 ± 0.084; H -0.015 ± 0.099; M 0.068 ± 0.14; A 0.124 ± 0.093
R51: C -0.442 ± 0.22; S -0.323 ± 0.1; N -0.402 ± 0.19; E -0.154 ± 0.09
S35: I -0.062 ± 0.15; E 0.03 ± 0.1; A -0.086 ± 0.11; F -0.22 ± 0.11; G -0.033 ± 0.08; K 0.136 ± 0.15; M -0.095 ± 0.12
W46: A -0.932 ± 0.13; F -0.393 ± 0.15; E -0.946 ± 0.17; G -0.92 ± 0.1; M -0.922 ± 0.14; I -0.932 ± 0.19; Y -0.648 ± 0.24; V -0.933 ± 0.12; P -0.986 ± 0.15
F47: E -0.672 ± 0.17; D -0.852 ± 0.37; Q -1 ± 0.19; L -0.722 ± 0.1; K -0.961 ± 0.21; Y -0.328 ± 0.14; I -0.751 ± 0.21
E7: T 0.221 ± 0.06; A -0.039 ± 0.071
V10: L -0.134 ± 0.091; Q -0.13 ± 0.17; R -0.266 ± 0.09; H -0.095 ± 0.24; P -0.554 ± 0.17; E -0.068 ± 0.13
K53: L -0.18 ± 0.18; H -0.204 ± 0.49; R -0.457 ± 0.31; Y -0.545 ± 0.29; A -0.602 ± 0.34; C 0.025 ± 0.47
R50: V -1 ± 0.13; W -0.924 ± 0.13; C -0.868 ± 0.18; M -0.545 ± 0.16; N -0.907 ± 0.39; H -0.583 ± 0.2; A -0.35 ± 0.086; D -0.849 ± 0.19; E -0.398 ± 0.12
L36: H -0.527 ± 0.15; E -0.892 ± 0.12; P -0.608 ± 0.21
H17: L -0.292 ± 0.079; I -0.289 ± 0.16; Q -0.286 ± 0.13; W -0.02 ± 0.098; S 0.089 ± 0.095; T -0.1 ± 0.11
E54: D -0.185 ± 0.15; T -0.518 ± 0.15; Y -0.337 ± 0.17; M -0.407 ± 0.18; H -0.417 ± 0.28; C -0.284 ± 0.15; L -0.313 ± 0.095
R56: V -0.033 ± 0.13; I -0.508 ± 0.48
